Results published in the supplement of paper PMC9112550, “Optimization of the antimicrobial peptide Bac7 by deep mutational scanning” (BMC Biology, 2022).

Test system: Escherichia coli TOP10
Experiment: shrunken log2 fold change of peptide-encoding DNA abundance (4.5 h post-induction vs induction); higher = less antimicrobial activity (less host growth inhibition)
Settings: time post-induction: 4.5 h; library: site-saturation at positions 5, 18, 19, 20
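Note: peptides expressed intracellularly from a pBAD plasmid library in pooled LB shake-flask culture, induced with 0.3% L-arabinose, DNA abundance read by NGS, three biological replicates, DESeq2 with apeglm shrinkage.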

Sequence | shrunken log2 fold change
RRIRNRPPRLPRPRPRPRTWPRP | 0.415
RRIRNRPPRLPRPRPRPSCAPRP | -0.0999
RRIRNRPPRLPRPRPRPSCQPRP | -0.185
RRIRNRPPRLPRPRPRPSDHPRP | -0.381
RRIRNRPPRLPRPRPRPSDIPRP | 0.0588
RRIRNRPPRLPRPRPRPSDMPRP | -0.117
RRIRNRPPRLPRPRPRPSEMPRP | -0.0844
RRIRNRPPRLPRPRPRPSERPRP | -0.016
RRIRNRPPRLPRPRPRPSFPPRP | -0.19
RRIRNRPPRLPRPRPRPSHIPRP | -0.69
RRIRNRPPRLPRPRPRPSHSPRP | -0.182
RRIRNRPPRLPRPRPRPSMKPRP | -0.609
RRIRNRPPRLPRPRPRPSMSPRP | -0.222
RRIRNRPPRLPRPRPRPSMYPRP | -0.309
RRIRNRPPRLPRPRPRPSPCPRP | -0.36
RRIRNRPPRLPRPRPRPSPVPRP | 0.00108
RRIRNRPPRLPRPRPRPSQIPRP | -0.664
RRIRNRPPRLPRPRPRPSRFPRP | -0.0872
RRIRNRPPRLPRPRPRPSRNPRP | 0.0074
RRIRNRPPRLPRPRPRPSRTPRP | 0.0867
RRIRNRPPRLPRPRPRPSSDPRP | -0.171
RRIRNRPPRLPRPRPRPSTSPRP | -0.36
RRIRNRPPRLPRPRPRPSTYPRP | -0.318
RRIRNRPPRLPRPRPRPSVHPRP | -0.311
RRIRNRPPRLPRPRPRPSVTPRP | 0.0789

Sequence | shrunken log2 fold change
RRIRNRPPRLPRPRPRPTANPRP | 0.0124
RRIRNRPPRLPRPRPRPTDVPRP | -0.0793
RRIRNRPPRLPRPRPRPTEQPRP | -0.209
RRIRNRPPRLPRPRPRPTFDPRP | 0.0109
RRIRNRPPRLPRPRPRPTGDPRP | 0.258
RRIRNRPPRLPRPRPRPTGSPRP | 0.1
RRIRNRPPRLPRPRPRPTICPRP | -0.119
RRIRNRPPRLPRPRPRPTKFPRP | -0.607
RRIRNRPPRLPRPRPRPTKTPRP | 0.0911
RRIRNRPPRLPRPRPRPTMAPRP | 0.0535
RRIRNRPPRLPRPRPRPTMMPRP | 0.0241
RRIRNRPPRLPRPRPRPTNKPRP | -0.468
RRIRNRPPRLPRPRPRPTSMPRP | 0.0812
RRIRNRPPRLPRPRPRPTTMPRP | -0.0975
RRIRNRPPRLPRPRPRPTVVPRP | 0.229
RRIRNRPPRLPRPRPRPTVYPRP | 0.0487
RRIRNRPPRLPRPRPRPTWAPRP | 0.374
RRIRNRPPRLPRPRPRPTWIPRP | -0.0601
RRIRNRPPRLPRPRPRPTWVPRP | 0.0257
RRIRNRPPRLPRPRPRPVCHPRP | -0.169
RRIRNRPPRLPRPRPRPVEEPRP | 0.0471
RRIRNRPPRLPRPRPRPVHKPRP | -0.182
RRIRNRPPRLPRPRPRPVHPPRP | -0.0892
RRIRNRPPRLPRPRPRPVIVPRP | -0.112
RRIRNRPPRLPRPRPRPVNLPRP | -0.0237

Sequence | shrunken log2 fold change
RRIRNRPPRLPRPRPRPVNYPRP | -0.179
RRIRNRPPRLPRPRPRPVPLPRP | -0.539
RRIRNRPPRLPRPRPRPVPNPRP | -0.0122
RRIRNRPPRLPRPRPRPVQIPRP | 0.00489
RRIRNRPPRLPRPRPRPVQLPRP | 0.176
RRIRNRPPRLPRPRPRPVTCPRP | -0.45
RRIRNRPPRLPRPRPRPVTYPRP | -0.168
RRIRNRPPRLPRPRPRPVYDPRP | -0.386
RRIRNRPPRLPRPRPRPVYEPRP | -0.027
RRIRNRPPRLPRPRPRPVYLPRP | -0.216
RRIRNRPPRLPRPRPRPWACPRP | 0.0014
RRIRNRPPRLPRPRPRPWADPRP | -0.124
RRIRNRPPRLPRPRPRPWDWPRP | 0.0265
RRIRNRPPRLPRPRPRPWFCPRP | -0.861
RRIRNRPPRLPRPRPRPWFYPRP | -0.154
RRIRNRPPRLPRPRPRPWGRPRP | 0.0851
RRIRNRPPRLPRPRPRPWGVPRP | 0.112
RRIRNRPPRLPRPRPRPWHIPRP | -0.325
RRIRNRPPRLPRPRPRPWIRPRP | -0.399
RRIRNRPPRLPRPRPRPWLCPRP | 0.00252
RRIRNRPPRLPRPRPRPWPEPRP | -0.0309
RRIRNRPPRLPRPRPRPWQNPRP | 0.191
RRIRNRPPRLPRPRPRPWQPPRP | 0.104
RRIRNRPPRLPRPRPRPWRYPRP | -0.0121
RRIRNRPPRLPRPRPRPWSMPRP | -0.0638

Sequence | shrunken log2 fold change
RRIRNRPPRLPRPRPRPWVLPRP | 0.0737
RRIRNRPPRLPRPRPRPWVTPRP | -0.0711
RRIRNRPPRLPRPRPRPWWNPRP | -0.141
RRIRNRPPRLPRPRPRPWYAPRP | -0.533
RRIRNRPPRLPRPRPRPWYGPRP | -0.56
RRIRNRPPRLPRPRPRPYDKPRP | -0.388
RRIRNRPPRLPRPRPRPYGAPRP | -0.397
RRIRNRPPRLPRPRPRPYILPRP | -1.07
RRIRNRPPRLPRPRPRPYKYPRP | -0.369
RRIRNRPPRLPRPRPRPYLTPRP | -0.332
RRIRNRPPRLPRPRPRPYLVPRP | -0.161
RRIRNRPPRLPRPRPRPYMMPRP | -0.118
RRIRNRPPRLPRPRPRPYNHPRP | -1.85
RRIRNRPPRLPRPRPRPYNWPRP | -0.161
RRIRNRPPRLPRPRPRPYQPPRP | -0.31
RRIRNRPPRLPRPRPRPYQWPRP | -0.098
RRIRNRPPRLPRPRPRPYQYPRP | 0.0162
RRIRNRPPRLPRPRPRPYSPPRP | -0.276
RRIRNRPPRLPRPRPRPYTAPRP | -0.502
RRIRNRPPRLPRPRPRPYTWPRP | -0.547
RRIRNRPPRLPRPRPRPYVYPRP | -1.31
RRIRNRPPRLPRPRPRPYWWPRP | 0.0224
RRIRNRPPRLPRPRPRPYYHPRP | -0.781
RRIRNRPPRLPRPRPRPYYNPRP | -1.49
RRIRNRPPRLPRPRPRPYYPPRP | -0.141

Sequence | shrunken log2 fold change
RRIRNRPPRLPRPRPRPYYQPRP | -0.697
RRIRNRPPRLPRPRPRPYYYPRP | -0.0857
RRIRPRPPRLPRPRPRPAAEPRP | 0.595
RRIRPRPPRLPRPRPRPAAQPRP | 0.721
RRIRPRPPRLPRPRPRPACAPRP | 0.593
RRIRPRPPRLPRPRPRPADCPRP | 0.273
RRIRPRPPRLPRPRPRPADEPRP | 0.0954
RRIRPRPPRLPRPRPRPAEWPRP | 0.308
RRIRPRPPRLPRPRPRPAFDPRP | 0.388
RRIRPRPPRLPRPRPRPAGCPRP | 0.386
RRIRPRPPRLPRPRPRPAGYPRP | -0.189
RRIRPRPPRLPRPRPRPAHIPRP | -0.205
RRIRPRPPRLPRPRPRPAIKPRP | -0.339
RRIRPRPPRLPRPRPRPAINPRP | -0.142
RRIRPRPPRLPRPRPRPAKAPRP | -0.0289
RRIRPRPPRLPRPRPRPALFPRP | 0.2
RRIRPRPPRLPRPRPRPAPAPRP | 0.425
RRIRPRPPRLPRPRPRPAPPPRP | 0.726
RRIRPRPPRLPRPRPRPARHPRP | 0.616
RRIRPRPPRLPRPRPRPARPPRP | 0.626
RRIRPRPPRLPRPRPRPATAPRP | 0.315
RRIRPRPPRLPRPRPRPAVAPRP | 0.416
RRIRPRPPRLPRPRPRPAVIPRP | -0.007
RRIRPRPPRLPRPRPRPAWHPRP | 0.362
RRIRPRPPRLPRPRPRPAYHPRP | -0.129

Sequence | shrunken log2 fold change
RRIRPRPPRLPRPRPRPCARPRP | 0.0698
RRIRPRPPRLPRPRPRPCCRPRP | -0.339
RRIRPRPPRLPRPRPRPCDEPRP | 0.0442
RRIRPRPPRLPRPRPRPCEGPRP | 0.156
RRIRPRPPRLPRPRPRPCESPRP | 0.183
RRIRPRPPRLPRPRPRPCEYPRP | 1.65
RRIRPRPPRLPRPRPRPCGTPRP | 0.155
RRIRPRPPRLPRPRPRPCHHPRP | -0.536
RRIRPRPPRLPRPRPRPCHPPRP | -0.154
RRIRPRPPRLPRPRPRPCIRPRP | -0.14
RRIRPRPPRLPRPRPRPCIWPRP | -0.109
RRIRPRPPRLPRPRPRPCKQPRP | -0.0806
RRIRPRPPRLPRPRPRPCLCPRP | -0.222
RRIRPRPPRLPRPRPRPCMCPRP | -0.0305
RRIRPRPPRLPRPRPRPCMRPRP | -0.239
RRIRPRPPRLPRPRPRPCNFPRP | -0.129
RRIRPRPPRLPRPRPRPCQPPRP | -0.0774
RRIRPRPPRLPRPRPRPCQWPRP | 0.205
RRIRPRPPRLPRPRPRPCTEPRP | 0.0737
RRIRPRPPRLPRPRPRPCVCPRP | 0.0289
RRIRPRPPRLPRPRPRPCVNPRP | -0.0713
RRIRPRPPRLPRPRPRPCVYPRP | -0.22
RRIRPRPPRLPRPRPRPCWMPRP | -0.126
RRIRPRPPRLPRPRPRPCWQPRP | -0.021
RRIRPRPPRLPRPRPRPCYIPRP | -0.795
